Data on 19 variants can be found in the RNAGym collection of RNA variant scans (doi:10.1073/pnas.2313332121).

First the molecules themselves.
B1: TPR 5TU (parent)
chain: GGAUCUUCUCGAUCUAACAAAAAAGACAAAUCUGCCACAAAGCUUGAGAGCAUCUUCGGAUGCAGAGGCGGCAGCCUUCGGUGGCGCGAUAGCGCCAACGUUCUCAACUAUGACACGCAAAACGCGUGCUCCGUUGAAUGGAGUUUAUCAUG

Variants at the floor of the assay were thinned out.

In the data set the parent is B1. In words: polymerase ribozyme fitness, log enrichment relative to wild type (log ratio); higher = more active; in vitro selection for triplet polymerase activity. In outline:
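One round of in vitro selection, in triplicate, was applied to PCR-built, transcribed mutant libraries of each subunit of a heterodimeric triplet polymerase ribozyme. The steps were annealing with a biotinylated primer, partner subunit and triplets, incubation frozen at −7 °C, gel excision of extended constructs, streptavidin-bead capture and RT-PCR. Fitness is the logarithm, base 2, of genotype enrichment over wild-type enrichment from inverse-variance-weighted replicate averages of Illumina-sequenced inputs and outputs, keeping genotypes with ≥10 input reads and ≥1 read per output.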
Turning to GGCUCUUCUCGAUCUAUCAAAAAAGUCAAAUCUGCCACAAAGCUUGAGAGCAUAUUCGGAUGCAGAGGCGGCAGUCUUCGGUGGCGCGAUAGUGCCAACGUUGUCAACUAUGACACGCAAAACGCGUGCUCCGUUGAAUGGACUUUAUCAUG [A3C A17U A26U C54A C75U C93U C103G G143C], the “polymerase ribozyme fitness (log ratio)” value is not above -4.2.
Then GGAUCUUCUCGAUCUAACAAAAAAGACAAAUCUGCCACAAAGCUUGAGAGCAUCUUCGGAAGCAGAGGCGGCAGCCUUCGGUGGCGCGAUAGCGUCAACGUUCUCAACUAUGACACGCAAAACGCGUGCUCCGUUGAAUGGAGUUUAUCAUG [U61A C95U], with -0.916; and GGAUCUUCUCGAUCUAACAAAAAAGACAAAUCUGCCACAAAGCUUGAGAGCAUCUUCGGAUGCAGAGGCGGCAGCCUUCGGUGGCGCGAUAGCGCAAACGUUCUCAACUAUGACACGCAAAACUCGUGCUCCGUUGAAUGGAGUUUAUCAUG [C96A G124U], with -0.674; and GGAUCUUCUCGAUCUAACAAAAAAGAAAAAUCUGCCACAAAGCUUGAGAGCAUCUUCAGAUGCAGAGGCGGCAGCGUUCGGUGGCGCGAUAGCGCCAAUGGUCUCAACUAUGACACGCAAAACGCGUGCUCCGUUGAAUGGAGUUUAUCAUG [C27A G58A C76G C99U U101G], with not above -4.2.
For GGAUCUUCUCGAUCUAACAAAAAAGACAAAUCUGUCAAAAAGCUUGAGAGCAUCUUCGGAUGCAGAGGCGGCAGCCUUCGGUUGCGCGAUAGCGCCAACGUUCUCAACUAUGACACGCAAAACGCGUGCUCCGUUGAAUGGAGUUUAUCAUA [C35U C38A G83U G152A], the “polymerase ribozyme fitness (log ratio)” value is not above -4.2.
For GGAUCUUCUCGAUCUAACAAAAAAGACAAAUCUGCCACAAAGCUUGAGAGCAUCUUCGGAUGCAGAGGCGGCAGCCUUCGGGGGCGUGAUAUCGCCAGCGUUCUCAACUAUGACACGCAAAACGCGUGCUCCGUUGAAUGGAGUUUAUCAUG [U82G C87U G92U A98G], the “polymerase ribozyme fitness (log ratio)” value is -2.69.
Consider GGAUCUUCUCGAUCUAACAAAAAAGACGUAUCUGCCACAAAGGUUGCGAGCAUCUUCGGAUGCAGAGGCGGCAGCCUUCGGUGUCGCGAUAGCGCCAACGUUCUCAACUUUGACACGCAAAACGCGUGCUCCGUUGAAUGGAGUUUAUCAUG [A28G A29U C43G A47C G84U A110U], for which the “polymerase ribozyme fitness (log ratio)” value was not above -4.2.
Consider GGAUCUUCUCGAUCUAACAACAAAGACAAAUCUGCCACAAAGCUUGAGAGCAUCUUCGGAUGCAGAGCAGGCAGCCUUCGGUGGCGCGAUAGGGCCAACGUUCUCAACUAUGACACGCAAAACGCGUGCUCCGUUGAAUGGAGGUUAUCAUG [A21C G68C C69A C93G U144G], for which the “polymerase ribozyme fitness (log ratio)” value was not above -4.2.
The result for GGAUCUUCUCGAUCUAACAAAAAAGACAAAUCUGCCACAAAGCUUGAGAGCAUCUUCGGAUGCAGACGCGGCAGCCUUCGGUGGCGCGAUAGUGCCAACGUUCUCACCUAUGACACGCAAAACGGGUGCUCCGUUGAAUGGAGUUUAUCAUG [G67C C93U A107C C125G] reads not above -4.2.
The result for GGAUCUUCUCGAUCUAACAAAAAAGACAAAUCUGCCACAAAGCUUGAGAGCAUCUUCGGAUGCAGAGGCGGCAGCCUUCGGUGGCGCGUUAGCGCCAACGUUCUCAACUAUGACACGCAAAAUGCGUGCUCCGUUGAAUGGAGUUUAUCAUG [A89U C123U] reads 0.89; that for GGAUCUUCUCGAUCUUACAAAAAAGACAAAUCUGCCACAAAGGUUGAGAGCAUCUUCGGAUGCAGAGGCGGCAGCCUUCGGUGCCGCGAUAGCGCCAACGUUCUCAACUAUGACACGCAAAACGCGUGCUCCGUUGAAUGGAGUUUAUCAUG [A16U C43G G84C], not above -4.2.
Then GGAUCUUCUCGAUCUAACAAAAAAGACAAAUCUGCCACAAAGCUUGACAGCAUCUUCGGAUGCAGAGGCGGCAGCCUUCGGUGGCGCGAUAGCUCUAACGUUCUCAACUAUGACACGGAAAUCGCGUGCUCCGUUGAAUGGAGUUUAUCAUG [G48C G94U C96U C118G A122U], with -3.42; and GGAUCUUCUCGAUCUCACAAAAAAGACAAAUCUGCCACAAAGCUUGAGAGCAUCUUCGGAUGCAGAGGCGGCAGCCUUCGGUAGCGCGAUAGCACCAACGUUCUCAACUAUGACACGCAAAACGCGUGCUCCGUUGAAUGGAGUUUAUCAUG [A16C G83A G94A], with -2.79; and GGAUCUUCUCGAUCUAACAAAAAAGACAAAUCUGCCACAAAGCUUGAGAGCAUAUUCGUAUGCAGAGGCGGCAGCCUUCGGUGGCGCGAUGGCGCCAACGUUCUCAACUAUGACACGCAAAACGCGUGCUCCGUAGAAUGGAGUUUAUCAUG [C54A G59U A91G U135A], with -3.95.
As for GGAUCUUCUCGAUCUAACAUAAAAGACAAAGCUGCCACAAAGCUUGAGAGCAUCAUCGGAUGCAGAGGCGGCGGCCUUCGGUGGGGGGAUAGCGCCAACGUUCUCAACUAUGACACGCAAAACGCGUGCUCCGUCGAAUGGAGUUUACCAUG [A20U U31G U55A A73G C85G C87G U135C U148C], the “polymerase ribozyme fitness (log ratio)” value was not above -4.2.
For GGAUCUUCUCUAUCUAACAAAAAAGUCAAAUCUGCCACAAAGCUUGAGAGCAUCUUCGGAUGCAGAGGCGGCAGCCUUCGGUAGCGCGAUAGCGCCAACGUUCUCAACUAUGACACGCAAAACGCGUGCUCCGUUGAAUGGAGUUUAUCAUG [G11U A26U G83A], the “polymerase ribozyme fitness (log ratio)” value is -4.06.
The result for GGAUCUUCUCGAUCUAACAAAAAAGACAAAUCUGCCACAAAGCUUGAGAGCGUCUUCGGAUGCAGAGGCGGCAGACUUCGGAGGCGCGAUAGCGACAACGUUCUCAACUAUGACACGCAAAACGCGUGCUCCGUUGAAUGGAGUUUAUCAUG [A52G C75A U82A C95A] reads not above -4.2; that for GGAUCUUCUCGAUGUAACAAAAAAGACACAUCUGCCACAAAGCUUGAGAGCAACUUCGGAUGCAGAGGCGGCAGCCUUCGGUGGCGCGAUAGCGUCAACGUUCUCAACUAUGAUACGCAAAACGCGUGCUCCGUUGAAUAGAGUUUAUCAUG [C14G A29C U53A C95U C114U G140A], -3.68; that for GGAUCUUCUCGAUCUAACAAAAAAGACAAAUCUGCAACAAAGCUUGAGAGCAUCUUCGGAUGCAGAGGCGGCAGCCUUCGGUGGCGCGAUAGCGCCAUCGUUCUCAUCUAUGACACGCAAAACGCGUGCUACGUUGAAUGGAGUUGAUCAUG [C36A A98U A107U C131A U146G], not above -4.2.
